Columns and labels:
Assay in all cases: SPR, antibody captured, C2 as analyte;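 note: biacore SPR at 37 °C, anti-C2 mAbs captured via goat anti-human IgG on CM5 chips, double-referenced sensorgrams fit to a 1:1 kinetic or steady-state model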
human C2 W420A = target: T1, human C2 W420A (human, UniProt P06681 21-752)
T1 sequence: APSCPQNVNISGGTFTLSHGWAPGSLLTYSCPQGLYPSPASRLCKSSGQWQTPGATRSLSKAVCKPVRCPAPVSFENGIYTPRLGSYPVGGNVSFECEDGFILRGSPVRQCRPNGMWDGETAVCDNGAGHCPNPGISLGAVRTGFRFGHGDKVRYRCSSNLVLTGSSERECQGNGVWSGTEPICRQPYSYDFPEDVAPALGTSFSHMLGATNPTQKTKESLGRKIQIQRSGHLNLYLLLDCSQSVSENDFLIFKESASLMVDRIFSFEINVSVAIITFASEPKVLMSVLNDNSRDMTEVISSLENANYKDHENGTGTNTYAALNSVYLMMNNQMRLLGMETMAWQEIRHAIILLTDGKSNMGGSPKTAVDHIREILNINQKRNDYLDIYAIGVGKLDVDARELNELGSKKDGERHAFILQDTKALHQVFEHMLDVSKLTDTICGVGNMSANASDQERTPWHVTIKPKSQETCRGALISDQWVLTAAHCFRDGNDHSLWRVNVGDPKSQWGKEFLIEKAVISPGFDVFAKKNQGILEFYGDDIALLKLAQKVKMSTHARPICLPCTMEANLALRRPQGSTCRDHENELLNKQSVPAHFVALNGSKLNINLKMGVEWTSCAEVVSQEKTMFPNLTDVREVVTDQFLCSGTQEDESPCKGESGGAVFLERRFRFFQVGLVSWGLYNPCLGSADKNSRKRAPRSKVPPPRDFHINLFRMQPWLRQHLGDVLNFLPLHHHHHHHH

human C2 E267A = target: T2, human C2 E267A (human, UniProt P06681 21-752)
T2 sequence: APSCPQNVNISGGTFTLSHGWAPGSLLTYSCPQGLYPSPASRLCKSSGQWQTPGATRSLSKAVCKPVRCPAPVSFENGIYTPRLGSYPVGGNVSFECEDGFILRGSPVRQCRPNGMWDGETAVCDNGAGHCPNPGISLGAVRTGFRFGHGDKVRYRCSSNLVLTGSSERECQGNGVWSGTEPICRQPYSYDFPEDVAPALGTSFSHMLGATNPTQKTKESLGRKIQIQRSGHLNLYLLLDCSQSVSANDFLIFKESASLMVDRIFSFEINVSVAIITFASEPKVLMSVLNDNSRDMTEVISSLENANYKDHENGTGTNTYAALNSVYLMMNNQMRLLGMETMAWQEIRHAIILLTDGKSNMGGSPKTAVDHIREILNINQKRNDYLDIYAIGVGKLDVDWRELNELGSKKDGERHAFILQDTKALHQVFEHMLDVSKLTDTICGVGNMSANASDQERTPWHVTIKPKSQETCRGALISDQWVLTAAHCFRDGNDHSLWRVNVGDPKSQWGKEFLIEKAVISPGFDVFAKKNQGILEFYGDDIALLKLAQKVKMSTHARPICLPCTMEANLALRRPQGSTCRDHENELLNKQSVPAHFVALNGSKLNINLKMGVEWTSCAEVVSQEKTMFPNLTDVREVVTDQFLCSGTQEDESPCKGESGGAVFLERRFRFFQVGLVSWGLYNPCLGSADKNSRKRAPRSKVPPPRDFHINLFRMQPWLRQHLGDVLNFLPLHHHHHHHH

human C2 D404A = target: T3, human C2 D404A (human, UniProt P06681 21-752)
T3 sequence: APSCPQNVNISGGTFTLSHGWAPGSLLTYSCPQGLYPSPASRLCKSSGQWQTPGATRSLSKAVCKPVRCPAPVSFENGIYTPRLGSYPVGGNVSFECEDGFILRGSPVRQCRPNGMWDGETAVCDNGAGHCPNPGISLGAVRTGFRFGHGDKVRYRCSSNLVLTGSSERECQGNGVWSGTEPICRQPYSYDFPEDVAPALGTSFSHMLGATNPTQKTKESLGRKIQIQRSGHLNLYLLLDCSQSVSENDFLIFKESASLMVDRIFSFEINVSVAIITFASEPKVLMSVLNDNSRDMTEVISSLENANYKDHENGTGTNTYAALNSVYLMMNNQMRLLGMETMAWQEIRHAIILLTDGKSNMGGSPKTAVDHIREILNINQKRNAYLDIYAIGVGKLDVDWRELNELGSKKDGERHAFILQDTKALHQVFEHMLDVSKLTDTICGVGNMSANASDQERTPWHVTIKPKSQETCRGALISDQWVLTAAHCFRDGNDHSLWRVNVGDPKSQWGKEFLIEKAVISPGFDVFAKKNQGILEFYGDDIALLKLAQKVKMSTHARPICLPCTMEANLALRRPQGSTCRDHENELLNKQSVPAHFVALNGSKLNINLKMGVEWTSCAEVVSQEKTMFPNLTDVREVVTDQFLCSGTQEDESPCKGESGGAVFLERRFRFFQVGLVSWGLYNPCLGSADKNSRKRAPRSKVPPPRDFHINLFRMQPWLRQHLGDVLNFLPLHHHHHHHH

human C2 D269A = target: T4, human C2 D269A (human, UniProt P06681 21-752)
T4 sequence: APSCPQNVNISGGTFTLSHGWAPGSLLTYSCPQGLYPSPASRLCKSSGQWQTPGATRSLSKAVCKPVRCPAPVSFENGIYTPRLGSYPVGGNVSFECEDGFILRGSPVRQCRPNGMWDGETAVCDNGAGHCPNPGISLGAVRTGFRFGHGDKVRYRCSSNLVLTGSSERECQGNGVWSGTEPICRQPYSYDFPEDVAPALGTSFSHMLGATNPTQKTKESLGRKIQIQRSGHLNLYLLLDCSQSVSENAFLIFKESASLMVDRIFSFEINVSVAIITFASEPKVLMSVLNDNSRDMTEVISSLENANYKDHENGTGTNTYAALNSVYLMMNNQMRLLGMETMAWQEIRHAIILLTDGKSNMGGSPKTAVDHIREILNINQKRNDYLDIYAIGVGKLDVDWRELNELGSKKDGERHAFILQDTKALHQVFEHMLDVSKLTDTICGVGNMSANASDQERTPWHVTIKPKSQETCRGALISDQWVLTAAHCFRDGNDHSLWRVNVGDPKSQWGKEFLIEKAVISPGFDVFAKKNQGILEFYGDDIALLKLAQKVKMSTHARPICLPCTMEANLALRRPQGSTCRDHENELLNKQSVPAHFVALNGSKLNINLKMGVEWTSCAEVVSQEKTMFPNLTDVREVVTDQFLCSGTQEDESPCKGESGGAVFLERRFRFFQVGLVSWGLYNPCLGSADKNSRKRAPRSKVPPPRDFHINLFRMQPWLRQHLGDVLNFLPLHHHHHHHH

B1: RF16-226 (antibody, human IgG4 S228P, lambda)
heavy: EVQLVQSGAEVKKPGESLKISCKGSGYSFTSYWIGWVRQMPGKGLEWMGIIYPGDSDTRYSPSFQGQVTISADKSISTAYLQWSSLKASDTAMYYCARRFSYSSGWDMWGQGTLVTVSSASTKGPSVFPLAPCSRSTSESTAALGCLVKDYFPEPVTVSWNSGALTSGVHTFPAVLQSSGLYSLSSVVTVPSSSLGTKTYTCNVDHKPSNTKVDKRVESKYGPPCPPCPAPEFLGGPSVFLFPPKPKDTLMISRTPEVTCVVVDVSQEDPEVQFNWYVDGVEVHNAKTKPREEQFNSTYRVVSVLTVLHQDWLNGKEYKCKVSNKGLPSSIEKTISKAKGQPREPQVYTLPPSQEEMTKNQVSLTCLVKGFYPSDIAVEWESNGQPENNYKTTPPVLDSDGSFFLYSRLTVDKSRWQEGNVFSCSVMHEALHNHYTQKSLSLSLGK
light: SYELTQPPSVSVSPGQTARITCSGDALTSKYVAWYQQKSGLAPLLVIYEDTRRPSGIPAKFSGSSSGSVATLTISGAHGDDEADYYCYSTDASGHQRVFGGGTKLTVLSQPKAAPSVTLFPPSSEELQANKATLVCLISDFYPGAVTVAWKADGSPVKAGVETTKPSKQSNNKYAASSYLSLTPEQWKSHRSYSCQVTHEGSTVEKTVAPTECS
notes: pH-dependent anti-C2 antibody from a phage display library; also called WT
**Q.** For B1, which Kd (human C2 W420A) is on record?
**A.** 15.6 nM

**Q.** And the Kd (human C2 E267A)?
**A.** 11.2 nM

**Q.** What about the Kd (human C2 D404A) of the same binder?
**A.** 12.8 nM

**Q.** What about the Kd (human C2 D269A) of the same binder?
**A.** 13.1 nM
